Several values for one entry are separate records, joined by “and”; a condition that tells them apart may be missing. Equal values may be shown once.
Target: V2E FP_HM (HIV gp41 ectodomain construct FP_HM with the V2E mutation) (HIV (HXB2 laboratory strain))
Assay: SEC

Which stoichiometry N does the source give for “V2E FP_HM (HIV gp41 ectodomain construct FP_HM with the V2E mutation) (domain or fragment)” here?
The stoichiometry N was 3 and 6.
